According to the supplement of paper PMC9170038:

Tested on: K4 kissing-loop RNA reporter
Assay: apparent KD of K4 kissing-loop reporter; higher = weaker reporter binding
Details: Eterna round: R107
Description: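 RNA-MaP round R107: designed RNA switches with theophylline, tryptophan, arginine or FMN aptamers are transcribed on-chip within common flanks. They are titrated with a labelled K4 kissing-loop RNA reporter in RNA-MaP buffer (100 mM Tris pH 7.5, 80 mM KCl, 4 mM MgCl2), without ligand or with the indicated ligand. Median apparent KD per design.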

[1] = input ligand: theophylline 20 uM
[2] = input ligand: tryptophan 2.4 mM
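Further: bound reporter read as fluorescence of individual clusters on recovered sequencing chips by microscopy, with normalized cluster intensities fitted with a binding model.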

Question: With “AAAACGCUGUGAAUAACACAGCGAAAUUCGCGAGGACCGGUACGGCCGCCACUCGCUAACUGCGAGUGAUGUUCGAUAAUAAAAU [Mat - Mod of OpenEnded 3 - D3]” as the sequence, how does the “apparent KD of K4 kissing-loop reporter” value (input ligand: FMN 200 uM) read?
Answer: The value was 166 nM.

Question: And the “apparent KD of K4 kissing-loop reporter” value (input ligand: arginine 13.2 mM)?
Answer: The value was 90.3 nM.

Question: What about the “apparent KD of K4 kissing-loop reporter” value (input ligand: none) of the same sequence?
Answer: Its value is 170 nM.

Question: What about the “apparent KD of K4 kissing-loop reporter” value [1] of the same sequence?
Answer: Its value is 161 nM.

Question: What about the “apparent KD of K4 kissing-loop reporter” value [2] of the same sequence?
Answer: The value was 104 nM.

Question: “AAAACUCAUGGCUUAUAUCCGUGUCUCGAAGGAGCGUACAGCGGUACAGGUAGGUCGCGAGACAUGAGUGAUGUUCAUGUGUAAA [KL-XArg-A6 #analogue]” was tested. Which “apparent KD of K4 kissing-loop reporter” value (input ligand: FMN 200 uM) did it give?
Answer: Its value is 109 nM.

Question: What about the “apparent KD of K4 kissing-loop reporter” value (input ligand: arginine 13.2 mM) of the same sequence?
Answer: The value was 109 nM.

Question: And the “apparent KD of K4 kissing-loop reporter” value (input ligand: none)?
Answer: The value was 129 nM.

Question: What about the “apparent KD of K4 kissing-loop reporter” value [1] of the same sequence?
Answer: The value was 169 nM.

Question: What about the “apparent KD of K4 kissing-loop reporter” value [2] of the same sequence?
Answer: Its value is 104 nM.

Question: Which “apparent KD of K4 kissing-loop reporter” value (input ligand: FMN 200 uM) does the source give for “AAAACUCCGGGUAGUGAUGUUACCUAGGAUACCAGUAUCGCAACAUACCCUUGGCAGCCUCUUCCUGCUGGCGUCGCUUGGCCUA [theeternabot_exclusion_KL_Theo_A_42]” here?
Answer: Its value is 95.2 nM.

Question: And the “apparent KD of K4 kissing-loop reporter” value (input ligand: arginine 13.2 mM)?
Answer: Its value is 80.5 nM.

Question: What about the “apparent KD of K4 kissing-loop reporter” value (input ligand: none) of the same sequence?
Answer: Its value is 90.8 nM.

Question: And the “apparent KD of K4 kissing-loop reporter” value [1]?
Answer: Its value is 91.9 nM.

Question: What about the “apparent KD of K4 kissing-loop reporter” value [2] of the same sequence?
Answer: Its value is 75.1 nM.

Question: What does the source list for “AAAAUAAACCAGUGAUGUUGGUAGCCAGAUACCAGCGACGAAAGUCGCCCUUGGCAGCUGUGGACGUACAAAAUAAGUACGUCCU”?
Answer: apparent KD of K4 kissing-loop reporter (input ligand: FMN 200 uM): 248 nM; apparent KD of K4 kissing-loop reporter (input ligand: arginine 13.2 mM): 232 nM; apparent KD of K4 kissing-loop reporter (input ligand: none): 268 nM; apparent KD of K4 kissing-loop reporter [1]: 238 nM; apparent KD of K4 kissing-loop reporter [2]: 230 nM

Question: Which results are given for “AAAAUAAACCAGUGAUGUUGGUGUCCAGAUACCAGCGAUAAUAAUCGCCCUUGGCAGCUGCGGACGUACAAAAUAAGUACGUCCU [MatMod 11 - Jieux - Same State - Theophylline A]”?
Answer: apparent KD of K4 kissing-loop reporter (input ligand: FMN 200 uM): 482 nM; apparent KD of K4 kissing-loop reporter (input ligand: arginine 13.2 mM): 351 nM; apparent KD of K4 kissing-loop reporter (input ligand: none): 513 nM; apparent KD of K4 kissing-loop reporter [1]: 294 nM; apparent KD of K4 kissing-loop reporter [2]: 408 nM

Question: Which “apparent KD of K4 kissing-loop reporter” value (input ligand: FMN 200 uM) does the source give for “AAAAUAAACCAGUGAUGUUGGUGUCCAGAUACCAGCGAUAAUCAUCGCCCUUGGCAGCUGCGGACGUACAAAAUAAGUACGUCCU [MatMod 12 - Jieux - Same State - Theophylline A]” here?
Answer: Its value is 665 nM.

Question: What about the “apparent KD of K4 kissing-loop reporter” value (input ligand: arginine 13.2 mM) of the same sequence?
Answer: The value was 475 nM.

Question: What about the “apparent KD of K4 kissing-loop reporter” value (input ligand: none) of the same sequence?
Answer: The value was 707 nM.

Question: What about the “apparent KD of K4 kissing-loop reporter” value [1] of the same sequence?
Answer: The value was 399 nM.

Question: What about the “apparent KD of K4 kissing-loop reporter” value [2] of the same sequence?
Answer: The value was 567 nM.

Question: With “AAAAUAAACCAGUGAUGUUGGUGUCUGGAUACCAGCGACGAAAGUCGCCCUUGGCAGCUACGGACGUACAAAAUAAGUACGUCCU [MatMod 8 - Jieux - Same State - Theophylline A]” as the sequence, how does the “apparent KD of K4 kissing-loop reporter” value (input ligand: FMN 200 uM) read?
Answer: The value was 709 nM.

Question: And the “apparent KD of K4 kissing-loop reporter” value (input ligand: arginine 13.2 mM)?
Answer: The value was 487 nM.

Question: And the “apparent KD of K4 kissing-loop reporter” value (input ligand: none)?
Answer: Its value is 655 nM.

Question: And the “apparent KD of K4 kissing-loop reporter” value [1]?
Answer: Its value is 680 nM.

Question: And the “apparent KD of K4 kissing-loop reporter” value [2]?
Answer: Its value is 561 nM.

Question: How did the “apparent KD of K4 kissing-loop reporter” value (input ligand: FMN 200 uM) turn out when “AAAAUAAAGCAGUCAAUCGGAGUGAUGUUCCGAGGACCGGUACGGCCGCCACUCGAGAGUCCAAAGGACUCAUGGCGAGACUGCA [#SwitchBubble 17 #K4Early]” was run?
Answer: The value was 97 nM.

Question: And the “apparent KD of K4 kissing-loop reporter” value (input ligand: arginine 13.2 mM)?
Answer: The value was 94.8 nM.

Question: And the “apparent KD of K4 kissing-loop reporter” value (input ligand: none)?
Answer: The value was 93.2 nM.

Question: And the “apparent KD of K4 kissing-loop reporter” value [1]?
Answer: The value was 92.6 nM.

Question: And the “apparent KD of K4 kissing-loop reporter” value [2]?
Answer: Its value is 90.1 nM.

Question: What does the source list for “AAAAUAAAUCAGUGAUGUUGGUGUCCAGAUACCAGCGACGAAAGUCGCCCUUGGCAGCUGUGGACGUACAAAAUAAGUACGUCCU [MatMod 22 - Jieux - Same State - Theophylline A]”?
Answer: apparent KD of K4 kissing-loop reporter (input ligand: FMN 200 uM): 610 nM; apparent KD of K4 kissing-loop reporter (input ligand: arginine 13.2 mM): 316 nM; apparent KD of K4 kissing-loop reporter (input ligand: none): 611 nM; apparent KD of K4 kissing-loop reporter [1]: 335 nM; apparent KD of K4 kissing-loop reporter [2]: 465 nM

Question: For “AAAAUAAGCCAGUGAUGUUGGUACCCAGAUACCAGCGACGAAAGUCGCCCUUGGCAGCUGUGGACGUACAAAAUAAGUACGUCCU”, which “apparent KD of K4 kissing-loop reporter” value (input ligand: FMN 200 uM) is on record?
Answer: The value was 434 nM.

Question: And the “apparent KD of K4 kissing-loop reporter” value (input ligand: arginine 13.2 mM)?
Answer: Its value is 209 nM.

Question: What about the “apparent KD of K4 kissing-loop reporter” value (input ligand: none) of the same sequence?
Answer: The value was 315 nM.

Question: What about the “apparent KD of K4 kissing-loop reporter” value [1] of the same sequence?
Answer: The value was 617 nM.

Question: What about the “apparent KD of K4 kissing-loop reporter” value [2] of the same sequence?
Answer: Its value is 303 nM.

Question: What does the source list for “AAAAUAAGCCAGUGAUGUUGGUAGCCAGAUACCAGCGACGAAAGUCGCCCUUGGCAGCUGUGGACGUACAAAAUAAGUACGUCCU”?
Answer: apparent KD of K4 kissing-loop reporter (input ligand: FMN 200 uM): 1010 nM; apparent KD of K4 kissing-loop reporter (input ligand: arginine 13.2 mM): 751 nM; apparent KD of K4 kissing-loop reporter (input ligand: none): 928 nM; apparent KD of K4 kissing-loop reporter [1]: 711 nM; apparent KD of K4 kissing-loop reporter [2]: 723 nM

Question: “AAAAUAAUCCAGUGAUGUUGGUAUCCAGAUACCAGCCACGAAAGUGGCCCUUGGCAGCUGUAGGACGUACAAAUAAGUACGUCCA [#OpenEnded 7 #StaticStem #K4Early]” was tested. Which “apparent KD of K4 kissing-loop reporter” value (input ligand: FMN 200 uM) did it give?
Answer: Its value is 361 nM.

Question: What about the “apparent KD of K4 kissing-loop reporter” value (input ligand: arginine 13.2 mM) of the same sequence?
Answer: The value was 175 nM.

Question: And the “apparent KD of K4 kissing-loop reporter” value (input ligand: none)?
Answer: The value was 345 nM.

Question: And the “apparent KD of K4 kissing-loop reporter” value [1]?
Answer: The value was 486 nM.

Question: What about the “apparent KD of K4 kissing-loop reporter” value [2] of the same sequence?
Answer: The value was 444 nM.

Question: For “AAAAUAAUCCAGUGAUGUUGGUAUCCAGAUACCAGCCAGGAAACUGGCCCUUGGCAGCUGUGGACGUACAAAAUAAGUACGUCCU [#OpenEnded 10 #StaticStem #K4Early]”, which “apparent KD of K4 kissing-loop reporter” value (input ligand: FMN 200 uM) is on record?
Answer: The value was 481 nM.

Question: What about the “apparent KD of K4 kissing-loop reporter” value (input ligand: arginine 13.2 mM) of the same sequence?
Answer: The value was 268 nM.

Question: What about the “apparent KD of K4 kissing-loop reporter” value (input ligand: none) of the same sequence?
Answer: The value was 464 nM.

Question: What about the “apparent KD of K4 kissing-loop reporter” value [1] of the same sequence?
Answer: Its value is 611 nM.

Question: And the “apparent KD of K4 kissing-loop reporter” value [2]?
Answer: Its value is 355 nM.

Question: How did the “apparent KD of K4 kissing-loop reporter” value (input ligand: FMN 200 uM) turn out when “AAAAUAAUCCAGUGAUGUUGGUAUGCAGAUACCAGCGACGAAAGUCGCCCUUGGCAGCUGUGGACGUACAAAAUAAGUACGUCCU” was run?
Answer: Its value is 923 nM.

Question: And the “apparent KD of K4 kissing-loop reporter” value (input ligand: arginine 13.2 mM)?
Answer: Its value is 491 nM.

Question: And the “apparent KD of K4 kissing-loop reporter” value (input ligand: none)?
Answer: Its value is 933 nM.

Question: What about the “apparent KD of K4 kissing-loop reporter” value [1] of the same sequence?
Answer: Its value is 979 nM.

Question: What about the “apparent KD of K4 kissing-loop reporter” value [2] of the same sequence?
Answer: The value was 855 nM.
